70 sequences from the domain aggregation screens of Martell et al. (2025) can be followed below.
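Note: 20 min heating vs room temperature control held 20 min.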

The data set is described as follows: soluble fraction after stress (log2 fold change); higher = more stays soluble; pooled small domains, quantitative proteomics. To be noted: stress: 75 degC.
Take “HMDTVEFPVQVNGKVRGKITVAADAGKDAIETAALADEKVLAFLDGATPKKVIVVPGKLVNLVVQPG”: the “soluble fraction (log2)” value is 0.62.

For the sequence “HMDTVSYMSDAVKAGAVTPSHDEEARARYLLYAGFGAILLFLRYEASEPGDIESAIREFMERYGPVTAELY”, the “soluble fraction (log2)” value was 0.347.

In the case of “HMDTYKGFIFEVVDKYFSPTLNQKIGQAKNKQGIVLLQTKPSFTQDPKVLIEELKLIIDRDNLKA”, the “soluble fraction (log2)” value is -1.07.

“HMDVAAQITYAMRTMGVAPIPRNYELFYEAYIGSNPALTKELAALGSKATQEELDELGQQYF”: the “soluble fraction (log2)” value is -1.89.

“HMDVFPDESLKAWLIEMGFKLDQKKMNVFTVLRRMLLQTAPSVKEFRILEIVLQQSRRKLKELNDLKKS”: the “soluble fraction (log2)” value was -0.00949.

For the sequence “HMDVKQSAAGVAGRIRFELNRTLTGQGHEKFTSASQAIGPRPAAELARRLFNSGSVVGVHVFANIVTVDLL”, the “soluble fraction (log2)” value is 0.136.

With “HMDVLKMKVEDLNIGSRTVNSLTAAKIKTVAGLIKKSKESLLELDGMGNKGVEEIILALKKLGLEL”, the “soluble fraction (log2)” value was -1.08.

With “HMDVPTEEAILAYNNVPIELAAKFIGWSDITIRYALQEERAPFGMAAQNPKTGTWSYNISPGLLLKYKSGE”, the “soluble fraction (log2)” value is -2.23.

Turning to “HMDVPVEVFMERIVTALREGRKTTFSELMEGKPERGKVIGTFLALLQLSKGQQIQIHQEQRTGEISIEGGA”, the “soluble fraction (log2)” value was -0.328.

Consider “HMDVQTVTVIENVNVRKSASENGQKLGLAYTGEKLELLMKQADGWTRVKYNGETAYVKSDYV”, for which the “soluble fraction (log2)” value is 0.372.

For “HMDVTSLDMLRFLMDQHGLRQQDLSELGSQGVVSEILAGKRELNLRHIGALARRFKVPPEVFLPA”, the “soluble fraction (log2)” value was -0.778.

Turning to “HMDVYKRQKLRNFIESLFEDAPKNKQTIELKEEMLQNLIDKYNDLVDSGKSSEAAYNIATAS”, the “soluble fraction (log2)” value was determined as 0.131.

Take “HMDWNPVRDITAHQVLAILQATHIRAPTVAAEAKRTLSSIFQFAVATLRADIDPVWPVRNALPKNKT”: the “soluble fraction (log2)” value is -0.262.

In the case of “HMDYARYGLSEKEAELIELIAQGMNNKEISAEIYLSEGTVRNYISELLEKLELRDRTQLAVYYYTHR”, the “soluble fraction (log2)” value was -2.72.

Regarding “HMDYDDLVPLDARGRLRLDGQDIILAFGRHRGRSIEEVHNHDKSYFDWLVSPAGGLEDEVIATLRERF”, the “soluble fraction (log2)” value is -0.613.

In the case of “HMDYENGTVKWFNTKKGYGFITRENGEDLFVHFRNIKGRGRRSLNDGEPVTFVVIEGDKGLQADQVSA”, the “soluble fraction (log2)” value is -0.34.

With “HMDYGSLQRAIENQLEVRNYQKPKKFLTKIIQLMETIMVRHGVMVVGLTGTGKTTVIETLSRSMEQ”, the “soluble fraction (log2)” value was -0.591.

Take “HMDYIGIQAAKEAALKDADISSEQAVFTMAELDNKNNIFYYQIMFTENGTEYRYDIDALTGVIIEKNHFF”: the “soluble fraction (log2)” value was -2.4.

For “HMDYKLDVNFPEMYLEQIPAEKRAALIQILEQDPRPSYQKDPVRIYGMSYAGMEIHFRVDKETLYVTEVER”, the “soluble fraction (log2)” value is -1.06.

For “HMDYLSEFITDKVVRADGYSIRKGELSNEFKQWFITNVGTKNPKPKEIHDYMDRKFGKNKNGIWKNVKIKL”, the “soluble fraction (log2)” value is -0.492.

For “HMDYQEVEFEKLGKEILTKILLDINKKATKKTLKILIDGFNYDSYRSFYIAIGKAQISSDSILELLQH”, the “soluble fraction (log2)” value is -0.994.

Turning to “HMDYSWNFFIGFSVVDKVAGNLGTIEEIDDKTINTLFLVKNDDEDLIIPATEDFVEKIDAKKRILYLNLPE”, the “soluble fraction (log2)” value was -2.51.

For “HMDYYASVDQVWRELGLAGPARRALIDDGLFKLSDLRKTSLAAVKELHGMGPNAIRILTTEMKKADLSFR”, the “soluble fraction (log2)” value is -2.15.

For the sequence “HMDYYDTLGVPRNASQSDIKKAYKKQSMQHHPDRTGGDDTKFKDVNEAYQVLSNSEKKQMYDQFGTA”, the “soluble fraction (log2)” value worked out at 0.07.

As for “HMDYYNILGVNKAATAQDIKRAYRKLAKEHHPDHGGDATRLQQVNEAYDTLKDPQRREQYDS”, the “soluble fraction (log2)” value turned out to be 0.215.

Turning to “HMEAADAGTLAQRAAQYFNEKNYAAALDALERRAAMAPETTELRMMRGWSLLHLNRKDEARNAFATLG”, the “soluble fraction (log2)” value is -0.101.

Regarding “HMEAAIRNALSRVENPDETQRARIYRTAHDALIRNLENRGITDPEQVRPQVSRLKDLISVIEREYHG”, the “soluble fraction (log2)” value was -0.131.

As for “HMEAALTLRVDKAGSLRSLLSDEQYAKTSKIIVSGEINTLDIKTLQEMSGEKGSLQSIDLSQANIVAY”, the “soluble fraction (log2)” value came to 0.0407.

Take “HMEAFELTPREKQVLQLLVQGKAYKIIAADLDITYDTVRAHIKKIYEKLHVGSMTEAVAKAIQHKL”: the “soluble fraction (log2)” value is -2.08.

As to “HMEAKKVIAVHIIGEINKPGIVELEEGARVIDAIKKAGGTTEKADLAQINLAYILKDGQKIYIPNTEDN”, the “soluble fraction (log2)” value stood at 0.254.

For the sequence “HMEALASESVKDKIRKIIDSEDPSRPMSDQRIKEMLKAANIDIARRTVTKYREAMNILSSTKRRQV”, the “soluble fraction (log2)” value is -0.432.

“HMEALDPLTAREQEVLEMILSGKSNREIAAELHITENTVKTHAQSIYSKYDVRGRAKLISLLLKGEA”: the “soluble fraction (log2)” value was -0.406.

As for “HMEALQKVSINYYDEGAGKQIAEVPLEVGAGDTEIALAVINKYMPAEYNLVSTDYQIRGGYVYVSVTPA”, the “soluble fraction (log2)” value is -0.49.

Consider “HMEAPPHEALSNREFQVLQLLSQGRSVTQIAHQLTLSANTISTYRARIFDKLGLHNPADLYAYAARHGLM”, for which the “soluble fraction (log2)” value is -2.41.

Regarding “HMEAPWQEIKRQVMDGLDMSREFTDEELRERIALAVRSYSKEKLLSLKVRESYEEQIFNSFR”, the “soluble fraction (log2)” value is -1.05.

Take “HMEAQFIDINDVRIGTYVYVDLGWIKHPFALNSFKITSRDQIDTLIKLGVKRIRWSPEKSDS”: the “soluble fraction (log2)” value is -3.18.

For the sequence “HMEARNDWAQQSRADAEFGGEKLDENLAVAKKAVEALASPELKTLLEQSGLGNHPEIIRLFYRAGRSLS”, the “soluble fraction (log2)” value worked out at 0.0741.

In the case of “HMEATILTATPEAAGQRLDAFLAETLPELTRSAAQRLIAEGQVAVDGKIPTKSLKLAGGETVSVRLPEPE”, the “soluble fraction (log2)” value turned out to be 0.734.

With “HMEAVIGGIYRHYKGNNYKLLAVATHSETLEKMAVYQALYGEMGIWVRPLAMFMETIEKDGQSLKRFE”, the “soluble fraction (log2)” value is -2.67.

As for “HMEDAWMKKELWDAIATLPKKQRLVMTMRLTNNHSYKEIAAILGISENSAKVSYHHAVERLKEKFK”, the “soluble fraction (log2)” value is -2.23.

Take “HMEDDPIYEQVMIFLLDKQITSAPELERRFKITHQRAIELLAQMEKTGIVSTMGHAGKRDVLT”: the “soluble fraction (log2)” value is -1.85.

Take “HMEDEFNQIASQKNVPSFLGKGKKEVINIAKKNKIKINLSGNGYVKRQIPAPGEVISHLDEVTIFLEPG”: the “soluble fraction (log2)” value is -0.0115.

With “HMEDEVYFVPSPASRFNPWIAALASRRVPYRVEYDGAERRIAVPAGYAEKAGEELAAYERINHAWPR”, the “soluble fraction (log2)” value was -0.371.

For “HMEDFDLSDTERKIIAQIGHGYSNKEIAQKLGFSEGTIRNYLSVILDKLDLRDRTQLAIWYLSR”, the “soluble fraction (log2)” value is -0.592.

As for “HMEDIAAIAQRIQGLRDIVGISVEEMAKALDISEQEYREYEKGETDFSFSFLYTVANVLGINITDLI”, the “soluble fraction (log2)” value is -1.29.

For “HMEDIEEVIVEIDTVLRTHFDRGRTEVLFAEIETAGGRPFMTYLALLFMAHRGSVRLQQDDLFGDLWVKDP”, the “soluble fraction (log2)” value came to 0.198.

On to “HMEDISLYKILRAHSIDNLKLSQWIIDSLKTKFSTIGELQDAKIDDIRMYRIQDVRIEKIKNAVTEYMA”, for which the “soluble fraction (log2)” value is -1.08.

As for “HMEDISQHAVKKLVQEMVMAEDPRDPLSDQQIAENLSRLGLKVARRTVAKYRAMLGIQPSNRRRK”, the “soluble fraction (log2)” value is -1.21.

As to “HMEDIVDLVVEPEAAGRRLDAWLASRIERLSRSRIKALIESGHVAIGGATIVEAKKPVNSGDVVQLSVPEG”, the “soluble fraction (log2)” value is -0.263.

As for “HMEDKQRRMGELVALLNRAAYAYYTKDEPIMADVQYDRLYDELLSLEKETGVQMADSPTHRV”, the “soluble fraction (log2)” value is 0.0301.

“HMEDLMEERKEHLLSVMKDPAYVPMKQKELAMLLNVPKGLREELNQVLDALVAEGSVVMSKRGKYTIPQ”: the “soluble fraction (log2)” value was -0.0948.

For “HMEDNLVTYPNPTSDYIYVSKKVDLTVVNMLGDILIQKQNINVLDVTELTPGMYTIVIRYNNVTTNKRIIK”, the “soluble fraction (log2)” value is -0.017.

Take “HMEDPFATLGVHREASLDEIKRAYRRLAMFWHPDRNPEAVAGTEFKRVHAAYELLLDPQRLAEWQQAQAT”: the “soluble fraction (log2)” value was -0.19.

For the sequence “HMEDPLAAQWKQGRKLFHDDYGYGIISKAFTAGDELVIMVQFENGGEKRFLPKYQAHNLLLVEQ”, the “soluble fraction (log2)” value is -1.33.

In the case of “HMEDQVITQFNMRLIRAVMPQGAPMIVVYEDPKDYPGLFVARLFDGRKSTHLIALADTLEDI”, the “soluble fraction (log2)” value was -0.31.

Turning to “HMEDVDTAALEKVIATAKGLNKNDYTATTWTTMQAALTNAEKALEAKKSQTSVDEAAKTLQAAIDGLKKAS”, the “soluble fraction (log2)” value is 0.336.

For “HMEDVPYMIKLPSHHYLTKMVDGSTGWSLVQNSNTVVGSSKEELLKQYPEYEDFIVQEPLNV”, the “soluble fraction (log2)” value was -0.0186.

With “HMEDVSTLAVKQRIDDLVKQENPAKPLSDSDIVARLKTDGIYIARRTVAKYRMELNIPSSSARKRAQQFS”, the “soluble fraction (log2)” value is -2.31.

For the sequence “HMEDWTPERFVGAFVSGGPALRDEILLAATKDLSHAQATRLLKLAEARGLVHRSQPGPSERVRFVVARK”, the “soluble fraction (log2)” value is -0.518.

Turning to “HMEDYTPLQELGLKARYIELLEKGGIFSVEDLVQKSVDDLKDIDGIGEKTAKEIWEIVDSMVDF”, the “soluble fraction (log2)” value stood at 0.0226.

For the sequence “HMEDYYKEDYYTEVLKIPKEYIKGFQYYLIEDAEFVNALNAKNKTMTSFLAKKLASDYIEIIHQEQ”, the “soluble fraction (log2)” value is -2.2.

On to “HMEEDDGVDFHERLTELNDEQVYYLINTEPAKVIALALDQLGQKRKINIMNRFNPDMKHSIIMELGKL”, for which the “soluble fraction (log2)” value is -0.543.

Regarding “HMEEDGAPLESREVLLDQAISQGKGTQWTIATETKLEDHIVSGAYSTDGKVTLAVFSPLGDGKYEFSSSVN”, the “soluble fraction (log2)” value was found to be 0.181.

Take “HMEEDPIIIAQRFLNIFRQLHIFSEEKKESFNKMLLEQPAEIRGALRSLPGGGLLQDYIDDLESKA”: the “soluble fraction (log2)” value was -0.698.

As to “HMEEEEITIHIIGEVKYPGIVILKTGQRIIDAIDAAGGETEEADLNKINLAQLLSDGDKIYVPSINDN”, the “soluble fraction (log2)” value is 0.158.

Regarding “HMEEFAGYINGQPYYGPTHQHRGVKMVGAEHTQRPHPLVWDSVAKSLDNYDNRFQWVNGNLLQVV”, the “soluble fraction (log2)” value was -0.0201.

As for “HMEEFGRRLKERMIDKNMTEAELAQKTELWSSILTSYLKGERFPGYYTLLRIAEALDVSIDFLLGLRDEPE”, the “soluble fraction (log2)” value is -2.72.

Turning to “HMEEILLSVKADGTYWVDQKEVTLDEVGALLDKEPDRLLNIFMDEKVPVRHFINVVDIAKVKREGRFII”, the “soluble fraction (log2)” value is -0.27.

As for “HMEEIQLILAKNLKSIREKEKLSLEKVSQLTGVSKTMIGQIERGDSSPTLTTIWKIANGLKVSFTSLINNP”, the “soluble fraction (log2)” value was -3.06.

With “HMEEKKYEVGDVVSFNYLYKNSFAEGKVSSLIHSGTITRIIDGRPAPYLINRGTGWLSNDLILT”, the “soluble fraction (log2)” value is -1.21.
